Laboratory results taken from the supplement of paper PMC9170038.

System: MS2 coat protein
Assay: apparent KD of MS2 coat protein; designed switch direction (-1 OFF switch, 1 ON switch): -1; higher = weaker reporter binding
Summary of the method: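 Designed RNA switches with common flanks were transcribed on Illumina chips by stalled E. coli RNA polymerase and titrated with SNAP-549-labelled MS2 coat protein, from 0.7 or 1.5 nM doubling to 3 µM, in Tris-HCl pH 7.5 buffer with KCl, MgCl2, BSA, DTT, tRNA and Tween-20. Steps lasted 0.8–1.5 h (lowest) to 10–20 min (highest). Titrations ran without input, with 200 uM small-molecule ligand, or with an oligonucleotide input. Normalised cluster fluorescence was curve-fitted, and apparent KD is the per-design median over clusters.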

[1] = Eterna round: R95, input ligand: microRNA oligo, concentration not stated
[2] = input ligand: microRNA oligo, concentration not stated

Row | Sequence | apparent KD of MS2 coat protein (input ligand: FMN 200 uM) [nM] | apparent KD of MS2 coat protein (input ligand: none) [nM] | apparent KD of MS2 coat protein [1] [nM] | apparent KD of MS2 coat protein [2] [nM] | further results
1 | AUUAGCGUAGGAUAUUGAUACAUGUACAUGAGGAUCACCCAUGUGAGGUGAGUCUUGGAUUAAGAAGGGCGAAGAA [EX5 #37] (Eterna round: R97, puzzle: Exclusion 5) | 1080 | 1270 | – | – | –
2 | AUUAGUAUCUAGGAUAUCUAGUACAUAGUAUCUAGAGAAGGAGAUACAUGAGGAUCACCCAUGUUCUGUGUUCU [Exclusion 6 - 1:d] (puzzle: Exclusion 6) | – | – | 20.3 | – | –
3 | AUUAUAAAUGUAGGAUAUCUGCACGAUUAGUGCAGAGAAGGACAUGAGGAUCACCCAUGUAGAUCAAUAAUAAUUAAUUUAAUU [ENG1/5-B1] (Eterna round: R96, puzzle: Exclusion NG 1) | 184 | 39.8 | – | 34 | –
4 | AUUAUAUAGACAGGAUAUUGAUUAUUAUUUUAACAUGAGGAUCACCCAUGUAACCUUAUGUGUAACAAGAAGGGUCAUUUAUUA [Title] (Eterna round: R96, puzzle: Exclusion NG 2) | 188 | 106 | – | 99.6 | –
5 | AUUAUAUAGGUAGGAUAUAGAAUAUUAUUUUAACAUGAGGAUCACCCAUGUAACCUUAUGUGUAGCUAGAAGGACCAUUUAUUA [Title] (Eterna round: R96, puzzle: Exclusion NG 2) | – | – | – | 64.6 | –
6 | AUUAUGUAAGGAUAUCUUACAUGUGACUUCGGUCACUGUUAAGAGAAGGUACAUGAGGAUCACCCAUGUAGAAC [Ex4-3: 47] (puzzle: Exclusion 4) | – | – | 18.1 | – | –
7 | AUUAUGUUAGGAUAUUAUUUGCCCUACUAAGGCACGAGAAGUAAGAAGGGACAUGAGGAUCACCCAUGUUGGAG [Eternabot (L2) Solution 71] (Eterna round: R97, puzzle: Exclusion 4) | 30.3 | 42.7 | – | – | –
8 | AUUAUUUAAGUCAGGAUAUCGUAUUUAUUUAAAUACGAGAAGGGACAUGAGGAUCACCCAUGUAAUAAAUUUUA [JMFs Solution 2] (puzzle: Brourd's mod of Exclusion 4) | – | – | 16.6 | – | –
9 | AUUCAACAUGAGGAUCACCCAUGUGAGGAUAUGCGAGAAUAGACUUCGGUCAGAUAGAGCAGAAGGCGCAGAUA [EX1 #5] (Eterna round: R97, puzzle: Exclusion 1) | 22 | 29.1 | – | – | –
10 | AUUCCACAUGAGGAUCACCCAUGUGAGGAUAUCAUGCUUCGUAGUAAACUACGAAGUGUGAGAAGGCACAAUGG [Omei Ex1 C3] (Eterna round: R97, puzzle: Exclusion 1) | 183 | 62 | – | – | –
11 | AUUCCUUGUGUUAGGAUAUGUCACUACCGUAUGCGACAGAAGGAACAUGAGGAUCACCCAUGUGAGUUAGCCGA [Usened] (puzzle: Brourd's mod of Exclusion 4) | – | – | 52.4 | – | –
12 | AUUGAUAGCACAGGAUAUUGAGAUUUGAAUUGACAAGAAGGGUGUACAUGAGGAUCACCCAUGUAAUGGGAGAAUGAUUGAUUA [JR_ExcNG1_Sub001] (Eterna round: R96, puzzle: Exclusion NG 1) | 1260 | 1640 | – | 1040 | –
13 | AUUGAUGUUGAGGAUAUGCAUAUAUUUAUACUAGCAGAAGGCGAUACAUGAGGAUCACCCAUGUUCAUGGAAGU [JR_E6_Sub093] (puzzle: Exclusion 6) | – | – | 24.7 | – | apparent KD of MS2 coat protein (Eterna round: R95, input ligand: FMN 200 uM): 39.1 nM; apparent KD of MS2 coat protein (Eterna round: R95, input ligand: none): 28 nM
14 | AUUGAUGUUGAGGAUAUGCUUUUAUUUAUAAUAGCAGAAGGCGAUACAUGAGGAUCACCCAUGUUCAUGGUAGU [JR_E6_Sub095] (Eterna round: R96, puzzle: Exclusion 6) | 77.6 | 63.4 | – | 52.3 | –
15 | AUUGAUGUUGAGGAUAUGCUUUUAUUUAUAAUAGCAGAAGGCGAUACAUGAGGAUCACCCAUGUUCAUGGUAGU [JR_E6_Sub095] (puzzle: Exclusion 6) | – | – | 50.4 | – | –
